Measured values published in US20250277054A1 (WUXI BIOLOGICS IRELAND, published 2025).

Columns and labels:
Cyno PSMA.ECD.His (Acro) [1] = target: T1, Cyno PSMA.ECD.His (Acro) (cynomolgus, UniProt A0A2K5VNZ0 44-750); experiment: SPR (Biacore 8K), antibody captured by anti-human IgG Fc, PSMA injected, 1:1 model
T1 construct: extracellular domain; Bought protein with His tag; also called cynomolgus PSMA ECD protein; Cynomolgus PSMA/FOLH1 protein, His tag
Method: (§1) Each antibody was captured on an anti-human IgG Fc antibody immobilized CM5 sensor chip (Cytiva). Human and cynomolgus PSMA at different concentrations were injected over the sensor chip at a flow rate of 30 μL/min for an association phase of 120-180 s, followed by 600-3600 s dissociation. The chip was regenerated by 10 mM glycine (pH 1.5) after each binding cycle.
(§2) The sensorgrams of blank surface and buffer channel were subtracted from the test sensorgrams. The experimental data was fitted by 1:1 binding model. Molecular weight of 81.4 and 82.7 kDa were used to calculate the molar concentration of human and cynomolgus PSMA.

[2] = target: T2, Human PSMA.ECD.His (Acro) (human, UniProt Q04609 44-750); experiment: as above
T2 construct: extracellular domain; Bought protein with His tag; also called human PSMA ECD protein; Human PSMA/FOLH1 protein, His tag
T2 sequence (Q04609 44-750): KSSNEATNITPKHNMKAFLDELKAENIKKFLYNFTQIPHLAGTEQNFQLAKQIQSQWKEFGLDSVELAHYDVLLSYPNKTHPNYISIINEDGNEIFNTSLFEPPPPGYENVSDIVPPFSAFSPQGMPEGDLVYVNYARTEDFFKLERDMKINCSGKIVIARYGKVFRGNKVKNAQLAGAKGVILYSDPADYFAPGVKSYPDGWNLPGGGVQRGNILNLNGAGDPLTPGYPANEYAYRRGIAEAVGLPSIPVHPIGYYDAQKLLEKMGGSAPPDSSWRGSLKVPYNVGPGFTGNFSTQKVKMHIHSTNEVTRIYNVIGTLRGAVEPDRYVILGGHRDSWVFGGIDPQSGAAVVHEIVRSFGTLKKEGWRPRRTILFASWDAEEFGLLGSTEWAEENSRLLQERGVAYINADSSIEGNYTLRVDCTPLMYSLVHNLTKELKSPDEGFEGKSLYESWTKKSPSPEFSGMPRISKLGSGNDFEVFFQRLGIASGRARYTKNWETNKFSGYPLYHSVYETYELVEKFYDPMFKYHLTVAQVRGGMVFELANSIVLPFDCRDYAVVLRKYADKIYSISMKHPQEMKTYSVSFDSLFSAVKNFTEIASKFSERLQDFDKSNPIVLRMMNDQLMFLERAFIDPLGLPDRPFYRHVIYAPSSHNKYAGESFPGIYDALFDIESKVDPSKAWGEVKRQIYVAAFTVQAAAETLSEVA
Method: as §1, §2

[3] = target: T2, Human PSMA.ECD.His (Acro); experiment: ELISA, human PSMA ECD captured by anti-His antibody
Method: Plate was pre-coated with 1 μg/mL THE™ His Tag Antibody overnight in a refrigerator set to 4° C. After blocking with 200 μL of 1×PBS/2% BSA for 1 hour, the plates were washed with 1×PBST for three times, then 0.5 g/mL human PSMA ECD protein diluted in 1×PBS/2% BSA was added in a volume of 50 μL/well to the plate and incubated for 1 hour at ambient temperature. […] After washing the plates with 1×PBST for three times, 50 μL/well of HRP-labeled goat anti-human IgG antibody (1:5000 diluted in 1×PBS/2% BSA) were added into the plate and incubated for 1 hour at ambient temperature. After washing the plates with 1×PBST for six times, the color was developed by dispensing 50 μL/well of TMB substrate for 4-8 minutes, and then the reaction was stopped by adding 50 μL/well of 2M HCl. The absorbance was read at 450 nm using a microplate reader. The binding EC50 was calculated by GraphPad Prism through plotting antibody concentration (x-axis) versus OD450 value (y-axis) and analyzing as: Nonlinear regression (curve fit)-log (agonist) vs. response-Variable slope (four parameters).

[4] = target: T3, human PSMA on human prostate cancer cells (LNCaP, C4-2, 22Rv1) (human, UniProt Q04609 1-750); experiment: flow cytometry on LNCaP cells
T3 construct: whole, on cells; also called human PSMA-expressing LNCaP cells; C4-2 (PSMA High)
T3 sequence (Q04609 whole entry): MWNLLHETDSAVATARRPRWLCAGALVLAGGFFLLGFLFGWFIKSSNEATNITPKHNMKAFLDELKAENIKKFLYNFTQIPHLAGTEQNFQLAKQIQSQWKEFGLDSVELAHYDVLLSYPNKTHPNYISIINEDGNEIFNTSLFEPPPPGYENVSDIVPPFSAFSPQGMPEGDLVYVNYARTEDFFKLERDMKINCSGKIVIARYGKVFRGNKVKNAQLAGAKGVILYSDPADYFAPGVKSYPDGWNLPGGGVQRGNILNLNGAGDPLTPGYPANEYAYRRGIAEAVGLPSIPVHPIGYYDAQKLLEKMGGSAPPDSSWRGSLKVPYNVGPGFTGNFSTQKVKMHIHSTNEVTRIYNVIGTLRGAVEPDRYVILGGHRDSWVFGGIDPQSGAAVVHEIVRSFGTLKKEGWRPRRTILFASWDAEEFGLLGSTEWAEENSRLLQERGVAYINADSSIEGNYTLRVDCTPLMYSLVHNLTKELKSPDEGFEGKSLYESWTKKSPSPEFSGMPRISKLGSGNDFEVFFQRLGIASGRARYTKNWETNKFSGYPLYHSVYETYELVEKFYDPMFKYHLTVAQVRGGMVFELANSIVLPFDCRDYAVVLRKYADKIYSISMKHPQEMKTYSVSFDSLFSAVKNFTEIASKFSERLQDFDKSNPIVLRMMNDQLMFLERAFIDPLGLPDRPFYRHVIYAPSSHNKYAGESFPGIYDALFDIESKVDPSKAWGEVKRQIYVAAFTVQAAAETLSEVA
Method: After washing the cells twice with 1×PBS/1% BSA, Alexa fluor 647-labeled goat anti-human antibody (1:500 diluted with 1×PBS/1% BSA) was added into the cells and incubated in a refrigerator set to 4° C. for 0.5 hour in the dark. After washing the cells twice with 1×PBS/1% BSA, the mean fluorescence intensity (MFI) of the cells was measured by a flow cytometer and analyzed by FLOWJO. The binding EC50 was calculated by GraphPad Prism through plotting antibody concentration (x-axis) versus MFI (y-axis) and analyzing as: Nonlinear regression (curve fit)-log (agonist) vs. response-Variable slope (four parameters).

Cyno PSMA.ECD.His (Acro) [5] = target: T1, Cyno PSMA.ECD.His (Acro); experiment: ELISA, cynomolgus PSMA ECD captured by anti-His antibody
Method: Plate was pre-coated with 1 μg/mL THETM His Tag Antibody overnight in a refrigerator set to 4° C. After blocking with 200 μL of 1×PBS/2% BSA for 1 hour, the plates were washed with 1×PBST for three times, then 0.5 μg/mL cynomolgus PSMA ECD protein diluted in 1×PBS/2% BSA was added in a volume of 50 μL/well to the plate and incubated for 1 hour at ambient temperature. […] After washing the plates with 1×PBST for three times, 50 μL/well of HRP-labeled goat anti-human IgG antibody (1:5000 diluted in 1×PBS/2% BSA) were added into the plate and incubated for 1 hour at ambient temperature. After washing the plates with 1×PBST for six times, the color was developed by dispensing 50 μL/well of TMB substrate for 4-8 minutes, and then the reaction was stopped by adding 50 μL/well of 2M HCl. The absorbance was read at 450 nm using a microplate reader. EC50 was determined as described above.

[6] = target: T4, Mouse PSMA.ECD.His (Acro) (mouse, UniProt O35409 45-752); experiment: ELISA, coated mouse PSMA protein (His tag)
T4 construct: extracellular domain; Bought protein with His tag; also called mouse PSMA protein (His tag); Mouse PSMA/FOLH1 protein, His tag
T4 sequence (O35409 45-752): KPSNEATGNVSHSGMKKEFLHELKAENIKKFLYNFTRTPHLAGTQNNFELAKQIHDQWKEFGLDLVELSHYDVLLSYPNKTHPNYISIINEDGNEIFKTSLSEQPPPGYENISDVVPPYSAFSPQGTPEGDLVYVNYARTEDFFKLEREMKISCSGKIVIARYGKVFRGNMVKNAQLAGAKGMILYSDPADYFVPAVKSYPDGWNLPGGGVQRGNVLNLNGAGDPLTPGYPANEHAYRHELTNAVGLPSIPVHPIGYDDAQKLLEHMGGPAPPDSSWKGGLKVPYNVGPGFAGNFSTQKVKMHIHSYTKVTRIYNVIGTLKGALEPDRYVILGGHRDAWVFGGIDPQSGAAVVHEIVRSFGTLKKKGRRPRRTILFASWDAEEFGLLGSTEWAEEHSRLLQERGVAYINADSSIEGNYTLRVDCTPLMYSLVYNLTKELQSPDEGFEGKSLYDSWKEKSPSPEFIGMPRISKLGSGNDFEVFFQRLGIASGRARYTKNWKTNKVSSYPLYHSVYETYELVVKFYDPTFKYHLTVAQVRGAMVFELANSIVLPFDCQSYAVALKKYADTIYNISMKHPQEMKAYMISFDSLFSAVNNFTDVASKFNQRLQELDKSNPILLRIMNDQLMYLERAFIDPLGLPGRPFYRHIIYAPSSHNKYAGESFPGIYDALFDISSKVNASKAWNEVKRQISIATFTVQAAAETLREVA
Method: Briefly, 2 μg/mL mouse PSMA protein (His tag) were coated onto well in ELISA plate in coating buffer for 16 hours in a refrigerator set to 4° C. After washing plate once time with 1×PBST, 200 μL/well 2% BSA were added into wells and incubated for one hour at ambient temperature. […] After washing six times with 1×PBST, 100 μL/well of TMB substrate solution were added into wells and incubated for 5 minutes in dark and then 100 μL/well of 2M HCL were added into wells to stop the reaction. The relative light unit (RLU) were measured at OD450 and OD540 by SPECTRAMAX M5E. EC50 was determined as described above.

[7] = target: T5, full-length cynomolgus PSMA on Flp-in CHO cells (WBP3xx042-FlpinCHO.cPro1.B7) (cynomolgus, UniProt A0A2K5VNZ0 1-750); experiment: flow cytometry on cynomolgus PSMA-expressing CHO cells
T5 construct: whole, on cells; also called Cyno PSMA+ CHO cells; FlpInCHO-cyno PSMA
Method: After washing the cells twice with 1×PBS/1% BSA, Alexa fluor 647-labeled goat anti-human antibody (1:500 diluted with 1×PBS/1% BSA) was added into the cells and incubated in a refrigerator set to 4° C. for 0.5 hour in the dark. After washing the cells twice with 1×PBS/1% BSA, the mean fluorescence intensity (MFI) of the cells was measured by a flow cytometer and analyzed by FLOWJO.

- Kd (Cyno PSMA.ECD.His (Acro) [1]): 2.84 nM
- koff (Cyno PSMA.ECD.His (Acro) [1]): 0.000584 s⁻¹
- kon (Cyno PSMA.ECD.His (Acro) [1]): 206000 M⁻¹ s⁻¹
- Kd [2]: 0.0294 nM
- koff [2]: 1.12e-05 s⁻¹
- kon [2]: 381000 M⁻¹ s⁻¹
- EC50 [3]: 0.017 nM
- EC50 [4]: 0.25 nM
- EC50 (Cyno PSMA.ECD.His (Acro) [5]): 0.006 nM
- EC50 [6]: 0.026 nM
- EC50 [7]: 2.25 nM
B1: W305042-1.135.2-uIgG1L (antibody, V domains shown)
VH: EVQLVQSGAEVKKPGESLKISCKASGYSFTTYWIGWVRQMPGKGLELMGIIYPYDSDTRYSPSFQGQVTISADKSINTAYLQWSSLKASDTAMYYCARITGGYLFDYWGQGILVTVSS
VL: QSALTQPPSASGSPGQSVTISCTGTSSDVGGYNYVSWYQQHPGKAPKLMIYEVTKRPSGVPDRFSGSKSGNTASLTVSGLQAEDEADYYCTSYAGSNKYVFGTGTKVTVLG
notes: Fully human anti-PSMA monoclonal antibody, human IgG1 with lambda light chain; also called WBP305042; W305042-1.135.2-uIgGIL
